We go through two molecules from paper PMC2615621 (Nucleic Acids Research, 2008).

Like-named read-outs stand apart in the source and are kept apart here.

What all share (assay): native gel or EMSA
Data set [1] concerns the target …3 (SEP3), full-length, in vitro translated (Arabidopsis thaliana) (UniProt O22456).
Data set [2] has the same target. The source holds these as a separate data set.
Data set [3] concerns the molecule itself.
Data set [4] deals with the molecule itself. This is another data set of the same source.

With “…3 (SEP3), full-length, in vitro translated (from UniProt O22456 1-251) (natural protein)”, in data set [1], the apparent Kd1/Kd2 (cooperativity of two dimers on DNA) was 83 and the stoichiometry N was determined as 2. Also, in data set [2], the stoichiometry N was found to be 4.

B1: SEP3ΔC, C-terminally truncated SEP3, in vitro translated (domain or fragment)
chain: MGRGRVELKRIENKINRQVTFAKRRNGLLKKAYELSVLCDAEVALIIFSNRGKLYEFCSSSSMLRTLERYQKCNYGAPEPNVPSREALAVELSSQQEYLKLKERYDALQRTQRNLLGEDLGPLSTKELESLERQLDSSLKQIRALRTQFMLDQLNDLQSKERMLTETNKTLRLRLADGYQMPLQLNPN
modifications: 35S-methionine in some experiments
Turning to B1, the “apparent Kd1/Kd2 (cooperativity of two dimers on DNA)” value in the data set “native gel or EMSA [3]” was determined as 89. Besides, in “native gel or EMSA [4]”, the “stoichiometry N” value is 2.
